Laboratory results published in IntAct's records for PubMed 17289582.

Target: fap24_human FAAP24 (UniProt Q9BTP7)
Chain of UniProt Q9BTP7 (Q9BTP7 whole entry): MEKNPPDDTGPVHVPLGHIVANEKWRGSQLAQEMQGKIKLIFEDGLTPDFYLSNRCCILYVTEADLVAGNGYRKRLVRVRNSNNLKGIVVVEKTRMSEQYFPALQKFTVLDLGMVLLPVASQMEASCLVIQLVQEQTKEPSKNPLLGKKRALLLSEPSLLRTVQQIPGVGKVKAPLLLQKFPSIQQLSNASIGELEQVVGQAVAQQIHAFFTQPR

Fanconi anemia group M protein (Homo sapiens), Q8IYD8 K117R
effect of a mutation on the interaction: with no effect
